Laboratory results from PMC5389579.

Target: SSRP1 (Flag) (human, UniProt Q08945 1-709)
Assay: EMSA

Chain of SSRP1 (Flag) (Q08945 whole entry): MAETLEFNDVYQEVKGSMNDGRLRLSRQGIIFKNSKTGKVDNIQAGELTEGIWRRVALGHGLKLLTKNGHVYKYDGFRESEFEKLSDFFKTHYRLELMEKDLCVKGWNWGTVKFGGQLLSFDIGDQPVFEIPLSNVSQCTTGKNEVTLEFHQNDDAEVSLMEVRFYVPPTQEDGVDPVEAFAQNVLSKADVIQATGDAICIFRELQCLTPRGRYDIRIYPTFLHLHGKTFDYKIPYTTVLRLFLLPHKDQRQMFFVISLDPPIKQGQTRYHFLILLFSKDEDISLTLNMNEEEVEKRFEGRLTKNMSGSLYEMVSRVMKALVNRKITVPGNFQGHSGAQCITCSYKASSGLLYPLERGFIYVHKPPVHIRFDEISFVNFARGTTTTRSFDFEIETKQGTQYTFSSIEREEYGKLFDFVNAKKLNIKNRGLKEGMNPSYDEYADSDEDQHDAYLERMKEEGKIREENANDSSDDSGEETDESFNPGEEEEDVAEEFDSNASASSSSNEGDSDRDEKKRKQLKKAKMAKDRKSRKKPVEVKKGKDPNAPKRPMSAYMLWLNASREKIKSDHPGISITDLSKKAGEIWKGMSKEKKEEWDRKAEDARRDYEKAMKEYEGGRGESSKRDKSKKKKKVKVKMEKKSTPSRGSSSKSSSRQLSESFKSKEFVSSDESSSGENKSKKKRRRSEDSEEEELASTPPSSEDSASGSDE

B1: AC probe (dsDNA)
DNA 1: ACACACACACACACACACACACACACACACACACAC
DNA 2: GTGTGTGTGTGTGTGTGTGTGTGTGTGTGTGTGTGT
- binding result: binds
